Data from patent US20120058953A1, “COMPOSITIONS AND METHODS FOR ENHANCING APOPTOSIS” (Genentech, Inc., priority 2003, published 2012).
Like-named read-outs stand apart in the source and are kept apart here. Non-standard residues stand in square brackets, D forms with d. No end group written: not given here. Phe(4-SO3H) = N[C@@H](Cc1ccc(S(=O)(=O)O)cc1)C(=O)O; Phe(4-I) = N[C@@H](Cc1ccc(I)cc1)C(=O)O

Legend:
[1] = target: T1, ML-IAP-BIR (Homo sapiens, UniProt Q96CA5); experiment: fluorescence polarization competition assay, ML-IAP-BIR; format: binding
T1 construct: made in house; host or cells: Escherichia coli BL21 (DE3)
T1 sequence (Q96CA5 63-179): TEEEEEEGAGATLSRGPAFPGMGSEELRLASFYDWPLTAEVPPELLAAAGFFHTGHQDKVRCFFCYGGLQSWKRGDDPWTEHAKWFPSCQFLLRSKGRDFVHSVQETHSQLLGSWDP
Protocol: (§1) The apparent Kd values can be determined from the EC50 values.
(§2) The vectors pET15b-XIAPBIR2C202AC218G, pET15b-XIAPBIR3, and pET15b-MLIAPBIR were introduced into Escherichia coli strain BL21 (DE3). Overnight cultures were diluted 1:100 and grown at 30° C. in LB media with […] to an A600 of 0.5-0.7 with vigorous shaking. Isopropyl b-D-thiogalactoside (IPTG) was added to a final concentration of 1 mM and cultures were grown for 4 hours at 30° C. One litre of frozen cell pellet was resuspended in 100 ml Buffer A (50 mM Tris [pH 8.0], 300 mM NaCl, 5 mM b-mercaptoethanol, 0.5 mM PMSF, 2 mM benzamidine) with 5 mM imidazole and placed on ice for 30 minutes. Cells were lysed by homogenizing followed by repeated passes through a microfluidizer. Lysate was cleared by centrifugation at 15,000 rpm for 30 minutes. The supernatant was loaded onto a Ni-agarose column (Qiagen), washed with 10 column volumes Buffer A with 10 mM imidazole, and eluted with 10 column volumes Buffer A with 300 mM imidazole. Fractions containing BIR protein were pooled. Final concentrations of 5 mM DTT and 100 mM zinc acetate were added. The pool was concentrated and loaded on a Superdex 75™ (Pharmacia) sizing column. Protein eluted over one column volume into 50 mM Tris 8.0, 300 mM NaCl, 0.5 mM PMSF, 2 mM benzamidine, 5 mM DTT, 50 mM zinc acetate, 1 mM sodium azide. Fractions containing BIR protein were pooled and dialyzed against 4 changes of buffer containing 50 mM Tris (pH 8.0), 120 mM NaCl, 5 mM DTT, 0.5 mM PMSF, 2 mM benzamidine, 50 mM zinc acetate, 1 mM sodium azide. Protein was concentrated and stored at −80° C. for further characterization.
(§3) The apparent Kd values were determined from the EC50 values. […] Samples were read after a 10-minute incubation.

[2] = target: T2, XIAP-BIR3 (Homo sapiens, UniProt P98170); experiment: fluorescence polarization competition assay, XIAP-BIR3; format: binding
T2 construct: X-IAP BIR3 (amino acids residues 241-356); made in house; host or cells: Escherichia coli BL21 (DE3)
Protocol: as §1, §2, §3

[3] = target: T3, XIAP-BIR2 (Homo sapiens, UniProt P98170, C202A/C213G); experiment: fluorescence polarization competition assay, XIAP-BIR2; format: binding
T3 construct: X-IAP BIR2 (amino acid residues 124-240 with mutations C202A and C213G); made in house; host or cells: Escherichia coli BL21 (DE3)
Protocol: as §1, §2, §3

[4] = target: T4, ML-IAP-BIR (human, UniProt Q96CA5 63-179); experiment: fluorescence polarization competition, SMAC-FAM probe
T4 construct: range 63-179; Expressed in E. coli from pET15b and purified on Ni-agarose; also called BIR domain of ML-IAP
T4 sequence (looked up): T1 sequence (Q96CA5 63-179)

[5] = target: T5, XIAP-BIR3 (human, UniProt P98170 241-356); experiment: as above
T5 construct: range 241-356; Expressed in E. coli from pET15b and purified on Ni-agarose

[6] = target: T4, ML-IAP-BIR; experiment: as above; remark: listed apart in the source
[7] = target: T6, XIAP-BIR2 (human, UniProt P98170 124-240); experiment: as above
T6 construct: range 124-240; The text says C213G, the vector name reads pET15b-XIAPBIR2C202AC218G; Expressed in E. coli from pET15b

[8] = target: T5, XIAP-BIR3; experiment: as above; remark: listed apart in the source
[9] = target: T5, XIAP-BIR3; experiment: fluorescence polarization competition, SMAC-FAM or Hid-FAM probe
Text: (§4) The Kᵢ values for the mutant peptides relative to the Kᵢ of [sequence]

[10] = test system: U87MG glioma cells; details: athymic mice; Fulda et al. (2002); cited from earlier work
[11] = target: T4, ML-IAP-BIR; experiment: fluorescence polarization competition, SMAC-FAM or Hid-FAM probe
Text: as §4

[12] = target: T6, XIAP-BIR2; experiment: as above
Text: as §4

[13] = Table 4, P4 amino acid/phenylethylamine scan, Hid-FAM probe

T3 sequence (P98170 124-240 C202A/C213G): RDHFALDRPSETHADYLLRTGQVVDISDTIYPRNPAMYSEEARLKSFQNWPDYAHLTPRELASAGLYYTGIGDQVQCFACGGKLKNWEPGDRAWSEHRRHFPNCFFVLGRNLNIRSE
T6 sequence (P98170 124-240 C202A/C213G limits assumed): as the sequence (P98170 124-240 C202A/C213G) above
T2 sequence (P98170 241-356): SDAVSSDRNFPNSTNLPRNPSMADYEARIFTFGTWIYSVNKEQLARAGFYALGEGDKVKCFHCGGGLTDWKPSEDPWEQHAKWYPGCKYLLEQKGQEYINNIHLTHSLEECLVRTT
T5 sequence (P98170 241-356 limits assumed): as the sequence (P98170 241-356) above

Q: For COC[C@H](Cc1ccccc1)NC(=O)[C@@H]1CCCN1C(=O)[C@@H](NC(=O)[C@H](C)N)C(C)C [AVPX38], which Ki [1, 13] is on record?
A: 0.15 µM

Q: Which Ki [1, 13] does the source give for CC(C)[C@H](NC(=O)[C@H](C)N)C(=O)N1CCC[C@H]1C(=O)NCCc1cccc(Cl)c1 [AVPX39] here?
A: 0.68 µM

Q: For CCOc1ccccc1CCNC(=O)[C@@H]1CCCN1C(=O)[C@@H](NC(=O)[C@H](C)N)C(C)C [AVPX40], which Ki [1, 13] is on record?
A: 0.3 µM

Q: Which results are given for AEAVAWKSE?
A: Ki [1]: 9.3 µM; Ki [2]: > 64 µM; Ki [3]: 2.5 µM

Q: With AIPFEEKSE as the molecule, how does the Ki [1] read?
A: 0.44 µM

Q: What about the Ki [2] of the same molecule?
A: 0.59 µM

Q: And the Ki [3]?
A: 8.7 µM

Q: Which results are given for ATAVIEKSE?
A: Ki [1]: 4.3 µM; Ki [2]: > 64 µM; Ki [3]: 5.7 µM

Q: Which Ki [1] does the source give for AVPWGLKSE here?
A: 0.42 µM

Q: And the Ki [2]?
A: 0.54 µM

Q: What about the Ki [3] of the same molecule?
A: 6.9 µM

B1: AEAVAWKSE (peptide)
peptide: AEAVAWKSE
Q: For B1, which “fold specificity for ML-IAP-BIR relative to XIAP-BIR3” value [4] is on record?
A: > 10 fold

Q: What about the “fold weaker than the SMAC-based peptide” value [4] of the same molecule?
A: ~10 fold

Q: What about the “fold weaker than the SMAC-based peptide” value [5] of the same molecule?
A: > 100 fold

Q: And the Ki [6]?
A: 9.3 µM

Q: What about the Ki [7] of the same molecule?
A: 2.5 µM

B2: AQAVAWKSE (peptide)
peptide: AQAVAWKSE
Q: For B2, which Ki [6] is on record?
A: 7 µM

B3: AEAVPWKSE (peptide)
peptide: AEAVPWKSE
Q: For B3, which Ki [7] is on record?
A: 3.6 µM

B4: AIPFEEKSE (peptide)
peptide: AIPFEEKSE
Q: For B4, which Ki [6] is on record?
A: 0.44 µM

Q: And the Ki [8]?
A: 0.59 µM

Q: What about the Ki [7] of the same molecule?
A: 8.7 µM

B5: AVPWIGKSE (peptide)
peptide: AVPWIGKSE
Q: With B5 as the molecule, how does the Ki [6] read?
A: 0.33 µM

B6: ATAVIEKSE (peptide)
peptide: ATAVIEKSE
Q: With B6 as the molecule, how does the “fold specificity for ML-IAP-BIR relative to XIAP-BIR3” value [4] read?
A: > 10 fold

Q: And the “fold weaker than the SMAC-based peptide” value [4]?
A: ~10 fold

Q: And the “fold weaker than the SMAC-based peptide” value [5]?
A: > 100 fold

Q: What about the Ki [6] of the same molecule?
A: 4.3 µM

Q: And the Ki [7]?
A: 5.7 µM

B7: AVGVPWKSE (peptide)
peptide: AVGVPWKSE
Q: Which Ki [6] does the source give for B7 here?
A: 6 µM

B8: AVPX2AQKSE (peptide)
peptide: AVP[Phe(4-SO3H)]AQKSE
Q: Which Ki [9] does the source give for B8 here?
A: 8.5 µM

B9: APO2L/TRAIL: pro-apoptotic polypeptide APO2L/TRAIL (Accession Number: TN10_HUMAN) (protein, UniProt P50591 1-281, looked up)
Tumor necrosis factor ligand …: MAMMEVQGGPSLGQTCVLIVIFTVLLQSLCVAVTYVYFTNELKQMQDKYSKSGIACFLKEDDSYWDPNDEESMNSPCWQVKWQLRQLVRKMILRTSEETISTVQEKQQNISPLVRERGPQRVAAHITGTRGRSNTLSSPNSKNEKALGRKINSWESSRSGHSFLSNLHLRNGELVIHEKGFYYIYSQTYFRFQEEIKENTKNDKQMVQYIYKYTSYPDPILLMKSARNSCWSKDAEYGLYSIYQGGIFELKENDRIFVSVTNEHLIDMDHEASFFGAFLVG
Q: With B9 as the molecule, how does the “effect on established tumor” value [10] read?
A: reduction in size of the tumor

B10: AVPWGLKSE (peptide)
peptide: AVPWGLKSE
Q: With B10 as the molecule, how does the Ki [6] read?
A: 0.42 µM

Q: What about the Ki [8] of the same molecule?
A: 0.54 µM

Q: And the Ki [7]?
A: 6.9 µM

B11: AVPX10AQKSE (peptide)
peptide: AVP[Phe(4-I)]AQKSE
Q: With B11 as the molecule, how does the Ki [11] read?
A: 0.45 µM

Q: What about the Ki [12] of the same molecule?
A: 27.7 µM

B12: AVPX7AQKSE (peptide)
peptide: AVPXAQKSE
modifications: X7 at position 4 is cyclopentylalanine
Q: With B12 as the molecule, how does the Ki [11] read?
A: 7.9 µM

Q: What about the Ki [12] of the same molecule?
A: 229 µM
